Data on one molecule can be found in article PMC8409903.

The test deals with T1, mixed lineage kinase domain-like pseudokinase (MLKL) (human (endogenous in platelets)), Q8NB16.
T1 chain: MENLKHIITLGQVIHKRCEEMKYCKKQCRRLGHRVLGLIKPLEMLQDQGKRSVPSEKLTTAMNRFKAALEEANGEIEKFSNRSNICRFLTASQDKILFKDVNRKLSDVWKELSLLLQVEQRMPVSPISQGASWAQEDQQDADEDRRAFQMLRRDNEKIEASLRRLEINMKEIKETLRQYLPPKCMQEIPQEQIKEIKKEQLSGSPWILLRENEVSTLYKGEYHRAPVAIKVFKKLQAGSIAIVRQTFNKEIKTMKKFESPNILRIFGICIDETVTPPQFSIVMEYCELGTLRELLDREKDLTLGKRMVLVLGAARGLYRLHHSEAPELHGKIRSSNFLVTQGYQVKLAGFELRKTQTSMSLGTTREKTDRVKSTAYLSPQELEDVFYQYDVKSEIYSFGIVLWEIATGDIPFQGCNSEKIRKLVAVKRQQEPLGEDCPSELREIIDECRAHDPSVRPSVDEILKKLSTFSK
Put plainly: western blot of platelets. Conditions: remark: other sources report otherwise. Background: Immunoblotting shows a protein as a band on a membrane.

B1: mixed lineage kinase domain-like pseudokinase (MLKL), Q8NB16 1-471 (natural protein)
chain: MENLKHIITLGQVIHKRCEEMKYCKKQCRRLGHRVLGLIKPLEMLQDQGKRSVPSEKLTTAMNRFKAALEEANGEIEKFSNRSNICRFLTASQDKILFKDVNRKLSDVWKELSLLLQVEQRMPVSPISQGASWAQEDQQDADEDRRAFQMLRRDNEKIEASLRRLEINMKEIKETLRQYLPPKCMQEIPQEQIKEIKKEQLSGSPWILLRENEVSTLYKGEYHRAPVAIKVFKKLQAGSIAIVRQTFNKEIKTMKKFESPNILRIFGICIDETVTPPQFSIVMEYCELGTLRELLDREKDLTLGKRMVLVLGAARGLYRLHHSEAPELHGKIRSSNFLVTQGYQVKLAGFELRKTQTSMSLGTTREKTDRVKSTAYLSPQELEDVFYQYDVKSEIYSFGIVLWEIATGDIPFQGCNSEKIRKLVAVKRQQEPLGEDCPSELREIIDECRAHDPSVRPSVDEILKKLSTFSK
As a reminder, the stoichiometry N is a count of units in the complex or per binding partner. For the molecule B1, the stoichiometry N turned out to be 8.
